Measurements: doi:10.1101/2025.09.11.675134, “Biodistribution-Driven Discovery Identifies a Glycosidase-Cleavable Linker to Reprogram Radiotheranostics” (bioRxiv, 2025)
“Also recorded” adds a separate entry of the source.

How the values were obtained:
[1] = tested on: AR42J xenografts; assay: Ex vivo biodistribution of 111In-labeled variants in AR42J xenograft mice; set-up: species or system athymic nude mice; conditions: AR42J xenografts, 1 h post-injection
Description: For studies involving three variants (DOTA -TATE, DOTA-MVK(ε)-TATE, and DOTA-β-Gal-TATE), AR42J cells (5 × 10^6 cells per mouse) were subcutaneously inoculated into the right shoulder of the mice. Tumors were allowed to grow for 3 weeks, reaching a volume of 100 –200 mm³ before being used in subsequent experiments. For biodistribution or PET imaging studies, mice bearing subcutaneous AR42J tumors were administered 1.4 – 1.8 MBq (1 μg) of 111In-labeled DOTA-TATE variants or 2.7 – 4.9 MBq (1 μg) of 86Y-labeled DOTA-TATE variants via tail vein injection. Biodistribution studies with 111In-labeled DOTA -TATE variants were performed 1 hour post -injection (n = 3 per cohort), while studies with 86Y-labeled DOTA-TATE variants were conducted at 1, 4, and 24 hours post -injection (n = 3 per cohort). Mice were euthanized by CO2 asphyxiation, and 10 tissues, including tumors, were collected. All samples were weighed and counted on a gamma counter (2480 Wizard 3, Perkin Elmer Inc., Waltham, MA, USA). Results are presented as percentage of injected activity per gram (%IA/g) and mean values ± standard deviations. […]

[2] = tested on: AR42J xenografts; assay: PET/CT quantification of 86Y-labeled variants in AR42J xenograft mice; type: in vivo; conditions: PET SUVmax, 24 h post-injection
[3] = Urine metabolite analysis by radio-HPLC; type: in vivo; conditions: normal non-tumor-bearing athymic nu/nu mice, i.v. 13–15 MBq in 200 μL PBS (4 μg), urine 1 h post-injection, n = 3
Description: To elucidate the role of linker cleavage in reducing renal retention, we performed metabolite analysis of ^86Y-labeled DOTA-TATE derivatives in normal, non-tumor-bearing athymic nu/nu mice. […] These samples were analyzed by radio-HPLC alongside synthetic standards corresponding to the expected cleavage products: ^86Y-DOTA-G-M-OH and ^86Y-DOTA-NHMe (Fig. 4A).

[4] = tested on: AR42J xenografts; assay: Targeted alpha particle therapy, one-cycle regimen; type: in vivo, athymic nu/nu mice
Description: Building on the favorable dosimetry profiles observed for the cleavable linker-modified constructs, we next evaluated their therapeutic efficacy in vivo following one cycle of ^225Ac-labeled variants (Fig. 5C; Fig. S19A). […] Tumor growth, overall survival, and body weight were monitored over 95 days.
(§1) Mice received either a one-cycle regimen (n=8 per cohort) or a two-cycle regimen (n=6 per cohort) at an 8-day interval. Tumor volume and body weight were measured twice weekly after treatment using a digital caliper. Tumor volume was calculated using the formula V (mm^3) = (l × w^2)/2, where l (length) was the larger of the two perpendicular tumor axes, and w (width) was the smaller axis. Survival was monitored, with the endpoint defined as a tumor volume exceeding 2000 mm^3, a weight loss greater than 20% from baseline, or signs of distress in the mice.

[5] = Blood chemistry and complete blood count during therapy; type: in vivo, athymic nu/nu mice; conditions: one cycle of 225Ac treatment (148 kBq), blood at 0, 10 and 31 days, VetScan HM5
From the text: Blood samples were collected at multiple timepoints during therapy studies and analyzed to assess toxicity (Fig. S25). Biochemical parameters of liver (e.g. alanine aminotransferase, bilirubin) and renal (blood urea nitrogen, and creatinine) toxicity remained mostly within normal limits across all groups. […] These findings further support the favorable tolerability profiles of the cleavable linker constructs.
Additionally, a basic metabolic panel (BMP) and complete blood count (CBC) analysis were performed to monitor hematological parameters and potential treatment-related toxicity. For the one-cycle therapy cohort, blood was collected at 0-, 10-, and 31-days post-treatment, whereas for the two-cycle therapy cohort, blood was collected at 10 days, 3 months, and 6 months post-treatment. Samples were obtained retro-orbitally into potassium EDTA-coated tubes and analyzed using the Vetscan VS2 (Abaxis, Union City, CA, USA) and VetScan HM5 hematology analyzer (Abaxis). Although these instruments provide species-specific reference intervals, manufacturer-supplied ranges may not fully reflect our study cohort. […] The following parameters were assessed and compared: alanine transaminase (ALT, U/L), total bilirubin (TBIL, μmol/L), creatinine (CRE, μmol/L), blood urea nitrogen (BUN, mmol/L), total white blood cell count (WBC, 10^9/L), hemoglobin (HGB, g/dL), and platelets (PLT, 10^9/L).

[6] = tested on: AR42J xenografts; assay: Targeted alpha particle therapy, two-cycle regimen; type: in vivo, athymic nu/nu mice; conditions: 2 × 148 kBq
Description: To further assess therapeutic efficacy, AR42J xenograft-bearing mice received two cycles of ^225Ac-labeled constructs (2 × 148 kBq, administered 8 days apart) (Fig. 5D). […] Complete tumor regression occurred in two of six animals in each cleavable linker group.
as §1

In the case of `C[C@@H](O)[C@H](NC(=O)[C@@H]1CSSC[C@H](NC(=O)[C@@H](Cc2ccccc2)NC(=O)CCCC(=O)Nc2cc(COC(=O)N(C)CCNC(=O)CN3CCN(CC(=O)O)CCN(CC(=O)O)CCN(CC(=O)O)CC3)ccc2O[C@@H]2O[C@H](CO)[C@H](O)[C@H](O)[C@H]2O)C(=O)N[C@@H](Cc2ccc(O)cc2)C(=O)N[C@H](Cc2c[nH]c3ccccc23)C(=O)N[C@@H](CCCCN)C(=O)N[C@@H]([C@@H](C)O)C(=O)N1)C(=O)O` [^111In-DOTA-β-Gal-TATE, metal not drawn], the “Improvement of T/K ratio over DOTA-TATE” value [1] is reported as 2.7 fold, the “Increase in tumor uptake compared to DOTA-TATE” value [1] is reported as ~ 90% and the “Reduction in kidney retention compared to DOTA-TATE” value [1] is reported as ~ 29%.

For `C[C@@H](O)[C@H](NC(=O)[C@@H]1CSSC[C@H](NC(=O)[C@@H](Cc2ccccc2)NC(=O)CCCC(=O)Nc2cc(COC(=O)N(C)CCNC(=O)CN3CCN(CC(=O)O)CCN(CC(=O)O)CCN(CC(=O)O)CC3)ccc2O[C@@H]2O[C@H](CO)[C@H](O)[C@H](O)[C@H]2O)C(=O)N[C@@H](Cc2ccc(O)cc2)C(=O)N[C@H](Cc2c[nH]c3ccccc23)C(=O)N[C@@H](CCCCN)C(=O)N[C@@H]([C@@H](C)O)C(=O)N1)C(=O)O` [^86Y-DOTA-β-Gal-TATE, metal not drawn], the “T/K ratio higher than that of 86Y-DOTA-MVK(ε)-TATE” value [2] was “approximately 2.7 fold”, the “T/K ratio higher than that of 86Y-DOTA-TATE” value [2] was “over 10 fold” and the “Share of total urinary radioactivity corresponding to the cleaved metabolite (86Y-DOTA-G-M-OH or 86Y-DOTA-NHMe)” value [3] was 47.4%.

In the case of `C[C@@H](O)[C@H](NC(=O)[C@@H]1CSSC[C@H](NC(=O)[C@@H](Cc2ccccc2)NC(=O)CCCC(=O)Nc2cc(COC(=O)N(C)CCNC(=O)CN3CCN(CC(=O)O)CCN(CC(=O)O)CCN(CC(=O)O)CC3)ccc2O[C@@H]2O[C@H](CO)[C@H](O)[C@H](O)[C@H]2O)C(=O)N[C@@H](Cc2ccc(O)cc2)C(=O)N[C@H](Cc2c[nH]c3ccccc23)C(=O)N[C@@H](CCCCN)C(=O)N[C@@H]([C@@H](C)O)C(=O)N1)C(=O)O` [^225Ac-DOTA-β-Gal-TATE, metal not drawn], the Median survival time ([4]; 148 kBq (1 μg) per mouse, AR42J xenograft-bearing mice, n = 8, Kaplan–Meier, vehicle 16 days) is reported as 86 days, the Tumor growth ([4]; 148 kBq per mouse, monitored over 95 days, n = 8) is reported as “most sustained inhibition of tumor growth, with minimal progression observed up to day 35 post-treatment” and the Body weight ([4]; 148 kBq per mouse, n = 8) is reported as “gradually regained weight by day 14, maintaining stable body weights for the remainder of the study”. The “White blood cell counts” value [5] was “transient decrease following one cycle of ^225Ac treatment that recovered at later time points”, the Tumor control ([6]; 8-day interval, n = 6) was “significantly smaller; also recorded: prolonged tumor control with sustained growth inhibition” and the Median survival time ([6]; 8 days apart, AR42J xenograft-bearing mice, n = 6, Kaplan–Meier, vehicle 26.5 days) was 191.5 days. The “Mice with tumor volumes below 100 mm^3 by the final monitoring point” value ([6]; n = 6) was “all six”.
